In this experiment the target is Ostreolysin A6 (Pleurotus ostreatus) (UniProt P83467).
UniProt P83467, sequence (P83467 whole entry): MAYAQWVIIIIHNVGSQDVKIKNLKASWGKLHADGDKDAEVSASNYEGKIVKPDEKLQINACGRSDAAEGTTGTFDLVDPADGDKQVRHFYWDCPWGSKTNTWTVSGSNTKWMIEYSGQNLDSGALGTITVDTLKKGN

With Δ48EryB (erylysin B) (natural protein), the haemolysis of bovine erythrocytes, aegerolysin/MACPF-protein 12.5/1, 25 °C; against OlyA6/PlyB came out at 90 % lower.

For the origin of these results see publication PMC8310357.
